Measured values taken from paper PMC4526367, “Weak Interactions between Salmonella enterica FlhB and Other Flagellar Export Apparatus Proteins Govern Type III Secretion Dynamics” (PLoS ONE, 2015).
Read-outs that look alike come from different tables or passages of the source.

What was measured:
[1] = biological target: FlhB cytoplasmic domain (Salmonella enterica) (UniProt P40727); assay: SPR; conditions: cited from earlier work
[2] = biological target: FliK (UniProt P26416); assay: BLI
[3] = biological target: cytoplasmic domain of FlhA (FlhAC) (UniProt P40729); assay: BLI; FlhAC ligand on streptavidin sensors, FlhBC analyte 2, 1, 0.5, 0.25 and 0.125 uM; HBS-T, 25°C; one-state association fits, global two-state dissociation fit, steady state analysis, kobs vs [FlhBC]
cytoplasmic domain of FlhA (FlhAC), sequence (P40729 whole entry, the tested form may be a part): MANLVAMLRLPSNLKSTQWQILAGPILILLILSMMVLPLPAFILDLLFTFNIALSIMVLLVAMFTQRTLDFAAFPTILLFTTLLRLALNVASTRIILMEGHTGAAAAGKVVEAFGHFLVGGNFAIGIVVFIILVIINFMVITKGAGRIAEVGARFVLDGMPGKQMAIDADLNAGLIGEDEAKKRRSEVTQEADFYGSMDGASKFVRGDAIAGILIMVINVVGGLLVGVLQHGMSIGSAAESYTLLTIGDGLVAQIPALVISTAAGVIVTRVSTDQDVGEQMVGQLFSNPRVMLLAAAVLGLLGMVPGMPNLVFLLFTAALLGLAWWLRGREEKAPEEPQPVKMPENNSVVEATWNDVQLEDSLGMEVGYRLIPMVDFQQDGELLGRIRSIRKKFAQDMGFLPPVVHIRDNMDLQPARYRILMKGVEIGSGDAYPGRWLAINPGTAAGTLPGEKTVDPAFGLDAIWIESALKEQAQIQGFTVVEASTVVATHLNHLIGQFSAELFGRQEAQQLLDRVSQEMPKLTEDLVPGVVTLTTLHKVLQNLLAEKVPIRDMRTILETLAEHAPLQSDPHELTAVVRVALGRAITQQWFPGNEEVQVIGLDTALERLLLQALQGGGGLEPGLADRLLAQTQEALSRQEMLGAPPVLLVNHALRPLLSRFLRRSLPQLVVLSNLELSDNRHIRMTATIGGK

[4] = biological target: cytoplasmic domain of FlhA (FlhAC) (UniProt P40729); assay: as above; remark: listed apart in the source
[5] = biological target: the molecule itself; assay: AUC; sedimentation equilibrium, buffer with 33 mM C8E5, scans at 280 nm; fit to a single-species model
[6] = biological target: T1, FliI (UniProt P26465 1-456, biotin by amine crosslinking (NHS-LC-LC-biotin) when used as ligand); assay: BLI; conditions: both partners purified
T1 construct: source: E. coli BL21DE3(pLysS), purified (Talon IMAC, gel filtration into HBS-T)
T1 sequence: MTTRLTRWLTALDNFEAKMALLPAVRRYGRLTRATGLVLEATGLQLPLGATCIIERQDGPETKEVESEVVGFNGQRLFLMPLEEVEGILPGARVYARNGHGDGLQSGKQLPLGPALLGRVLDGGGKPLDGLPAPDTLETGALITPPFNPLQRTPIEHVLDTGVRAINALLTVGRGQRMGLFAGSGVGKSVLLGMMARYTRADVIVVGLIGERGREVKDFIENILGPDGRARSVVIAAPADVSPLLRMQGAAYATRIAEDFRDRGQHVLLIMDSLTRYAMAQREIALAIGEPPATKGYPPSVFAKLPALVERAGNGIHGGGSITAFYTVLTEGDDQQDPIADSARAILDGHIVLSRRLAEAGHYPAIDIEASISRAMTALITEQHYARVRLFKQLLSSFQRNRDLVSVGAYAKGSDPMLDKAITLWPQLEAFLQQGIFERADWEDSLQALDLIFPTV

[7] = biological target: T1, FliI; assay: BLI; FlhBC ligand on streptavidin sensors, FliI analyte 4, 2, 1, 0.5 and 0.25 uM without ATP; HBS-T, 25°C; global one-state association-then-dissociation model; conditions: both partners purified
[8] = biological target: T2, full-length wild-type FlhB (Salmonella enterica, UniProt P40727); assay: BLI; conditions: both partners purified
T2 construct: also called FlhB from pMM9; source: overproduced from pMM9, purified under nondenaturing conditions from solubilized crude membrane fractions
T2 sequence 1: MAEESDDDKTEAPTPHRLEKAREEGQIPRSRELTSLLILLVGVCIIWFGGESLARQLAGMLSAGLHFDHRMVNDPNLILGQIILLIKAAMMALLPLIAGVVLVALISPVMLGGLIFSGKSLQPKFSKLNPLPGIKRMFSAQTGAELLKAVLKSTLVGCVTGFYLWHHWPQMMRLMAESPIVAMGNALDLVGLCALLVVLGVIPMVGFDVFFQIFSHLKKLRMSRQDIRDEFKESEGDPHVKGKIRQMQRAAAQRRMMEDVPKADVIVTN
T2 sequence 2: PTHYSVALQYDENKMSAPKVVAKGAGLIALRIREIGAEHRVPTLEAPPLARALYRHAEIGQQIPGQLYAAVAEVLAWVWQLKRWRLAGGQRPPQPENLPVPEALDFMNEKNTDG

FliK (UniProt P26416), sequence (P26416 whole entry, the tested form may be a part): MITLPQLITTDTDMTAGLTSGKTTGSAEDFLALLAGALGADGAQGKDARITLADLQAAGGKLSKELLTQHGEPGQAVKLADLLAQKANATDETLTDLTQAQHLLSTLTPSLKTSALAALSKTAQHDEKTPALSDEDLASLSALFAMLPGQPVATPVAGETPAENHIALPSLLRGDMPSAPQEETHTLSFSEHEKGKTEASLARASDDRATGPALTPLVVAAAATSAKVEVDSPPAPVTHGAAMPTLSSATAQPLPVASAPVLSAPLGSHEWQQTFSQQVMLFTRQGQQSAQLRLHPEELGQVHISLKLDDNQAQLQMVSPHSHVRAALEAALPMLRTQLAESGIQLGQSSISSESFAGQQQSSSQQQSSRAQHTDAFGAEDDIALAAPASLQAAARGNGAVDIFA

In the case of FliK (from UniProt P26416), the Kd [1] is listed as 3200 nM.

In the case of “cytoplasmic domain of FlhB (FlhBC) (from UniProt P40727 212-383) (domain or fragment)”, the KD of the initial binding event [2] is reported as 8000 nM, the Kd [2] is reported as 2100 nM and the k1 (observed rate constant of initial binding) at 1 uM FlhBC [2] is reported as 0.05 s⁻¹. For the same molecule, the k1 (observed rate constant of initial binding) at 2 uM FlhBC [2] was 0.1 s⁻¹, the k1 (observed rate constant of initial binding) at 3 uM FlhBC [2] was 0.2 s⁻¹ and the k1 (observed rate constant of initial binding) at 4 uM FlhBC [2] was 0.25 s⁻¹. For the same molecule, the k1 (observed rate constant of initial binding) at 5 uM FlhBC [2] was 0.25 s⁻¹, the k2 (dissociation of AB to the free proteins), simulation at 1 uM FlhBC [2] was 0.44 s⁻¹ and the k2 (dissociation of AB to the free proteins), simulation at 2 uM FlhBC [2] was 0.44 s⁻¹. For the same molecule, the k2 (dissociation of AB to the free proteins), simulation at 3 uM FlhBC [2] was 0.44 s⁻¹, the k2 (dissociation of AB to the free proteins), simulation at 4 uM FlhBC [2] was 0.44 s⁻¹ and the k2 (dissociation of AB to the free proteins), simulation at 5 uM FlhBC [2] was 0.44 s⁻¹. For the same molecule, the k3 (shift from AB to AB*), simulation at 1 uM FlhBC [2] was 0.0085 s⁻¹, the k3 (shift from AB to AB*), simulation at 2 uM FlhBC [2] was 0.0085 s⁻¹ and the k3 (shift from AB to AB*), simulation at 3 uM FlhBC [2] was 0.0085 s⁻¹. It also gave a k3 (shift from AB to AB*), simulation at 4 uM FlhBC [2] of 0.0085 s⁻¹, a k3 (shift from AB to AB*), simulation at 5 uM FlhBC [2] of 0.0085 s⁻¹ and a k4 (shift from AB* to AB), simulation at 1 uM FlhBC [2] of 0.008 s⁻¹. It also gave a k4 (shift from AB* to AB), simulation at 2 uM FlhBC [2] of 0.008 s⁻¹, a k4 (shift from AB* to AB), simulation at 3 uM FlhBC [2] of 0.008 s⁻¹ and a k4 (shift from AB* to AB), simulation at 4 uM FlhBC [2] of 0.008 s⁻¹. It also gave a k4 (shift from AB* to AB), simulation at 5 uM FlhBC [2] of 0.008 s⁻¹, a koff of the initial binding event [2] of 0.44 s⁻¹ and a kon of the initial binding event [2] of 55000 M⁻¹ s⁻¹. The Kd [3] was 1000 nM, the koff [3] was 0.085 s⁻¹ and the kon [3] was 85000 M⁻¹ s⁻¹. For the same molecule, the Kd [4] was 1100 nM, the koff, fast state of the global two-state dissociation fit [4] was 0.13 s⁻¹ and the koff, slow state of the global two-state dissociation fit [4] was 0.0047 s⁻¹.

B1: full-length FlhB(N269A), uncleavable variant (natural protein)
chain: MAEESDDDKTEAPTPHRLEKAREEGQIPRSRELTSLLILLVGVCIIWFGGESLARQLAGMLSAGLHFDHRMVNDPNLILGQIILLIKAAMMALLPLIAGVVLVALISPVMLGGLIFSGKSLQPKFSKLNPLPGIKRMFSAQTGAELLKAVLKSTLVGCVTGFYLWHHWPQMMRLMAESPIVAMGNALDLVGLCALLVVLGVIPMVGFDVFFQIFSHLKKLRMSRQDIRDEFKESEGDPHVKGKIRQMQRAAAQRRMMEDVPKADVIVTAPTHYSVALQYDENKMSAPKVVAKGAGLIALRIREIGAEHRVPTLEAPPLARALYRHAEIGQQIPGQLYAAVAEVLAWVWQLKRWRLAGGQRPPQPENLPVPEALDFMNEKNTDG
For B1, the “stoichiometry N” value [5] was 2.

B2: cytoplasmic domain of FlhB (FlhBC) (domain or fragment)
chain: QIFSHLKKLRMSRQDIRDEFKESEGDPHVKGKIRQMQRAAAQRRMMEDVPKADVIVTNPTHYSVALQYDENKMSAPKVVAKGAGLIALRIREIGAEHRVPTLEAPPLARALYRHAEIGQQIPGQLYAAVAEVLAWVWQLKRWRLAGGQRPPQPENLPVPEALDFMNEKNTDG
modifications: biotin by amine crosslinking (NHS-LC-LC-biotin) when used as ligand
notes: source: E. coli BL21DE3(pLysS), purified (Talon IMAC, gel filtration into HBS-T)
Work on B2 yielded a Kd [6] of 1100 nM, a Kd [7] of 84 nM and a koff [7] of 0.0015 s⁻¹. For the same molecule, the kon [7] was 18000 M⁻¹ s⁻¹.

B3: FliH (natural protein)
chain: MSNELPWQVWTPDDLAPPPETFVPVEADNVTLTEDTPEPELTAEQQLEQELAQLKIQAHEQGYNAGLAEGRQKGHAQGYQEGLAQGLEQGQAQAQTQQAPIHARMQQLVSEFQNTLDALDSVIASRLMQMALEAARQVIGQTPAVDNSALIKQIQQLLQQEPLFSGKPQLRVHPDDLQRVEEMLGATLSLHGWRLRGDPTLHHGGCKVSADEGDLDASVATRWQELCRLAAPGVL
modifications: biotin by amine crosslinking (NHS-LC-LC-biotin) when used as ligand
notes: as for B2
For B3, the “KD with the 2 μM sample included” value [8] was 900 nM and the Kd [8] was 800 nM.
